The target in experiment [1] is T1, human IL-12RB2 with C-terminal HA tag, transiently expressed on HEK-293T cells (human, UniProt Q99665 24-862).
T1 construct: whole, on cells; also called human IL-12Rβ2
T1 sequence (looked up): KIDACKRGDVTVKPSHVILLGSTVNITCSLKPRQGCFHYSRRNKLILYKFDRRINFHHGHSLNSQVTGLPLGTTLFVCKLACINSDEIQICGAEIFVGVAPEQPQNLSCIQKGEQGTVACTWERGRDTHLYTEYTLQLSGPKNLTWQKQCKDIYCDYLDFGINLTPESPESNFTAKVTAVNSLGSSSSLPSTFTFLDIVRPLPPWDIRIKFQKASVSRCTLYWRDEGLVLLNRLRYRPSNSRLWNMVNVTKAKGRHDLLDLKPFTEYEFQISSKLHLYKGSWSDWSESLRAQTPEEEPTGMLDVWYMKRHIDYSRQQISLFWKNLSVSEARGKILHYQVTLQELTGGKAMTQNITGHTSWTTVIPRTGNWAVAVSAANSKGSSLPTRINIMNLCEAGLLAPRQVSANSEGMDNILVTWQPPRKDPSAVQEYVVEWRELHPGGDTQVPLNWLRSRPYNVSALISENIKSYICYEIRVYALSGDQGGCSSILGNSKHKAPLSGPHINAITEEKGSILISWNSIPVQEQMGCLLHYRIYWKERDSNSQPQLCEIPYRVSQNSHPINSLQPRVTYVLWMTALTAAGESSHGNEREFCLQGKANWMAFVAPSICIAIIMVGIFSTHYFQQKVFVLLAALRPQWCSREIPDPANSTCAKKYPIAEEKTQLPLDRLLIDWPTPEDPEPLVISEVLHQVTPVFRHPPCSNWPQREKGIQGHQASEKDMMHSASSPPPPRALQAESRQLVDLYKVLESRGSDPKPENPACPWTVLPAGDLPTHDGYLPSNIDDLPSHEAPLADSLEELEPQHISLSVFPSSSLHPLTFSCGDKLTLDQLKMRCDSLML
As to the kind of experiment: FACS, periplasmic extract, HEK-293T. (A flow cytometer gives signals particle by particle.)

Experiment [2] concerns the target T2, cyno IL-12RB2 with C-terminal HA tag, transiently expressed on HEK-293T cells (cyno, UniProt A0A2K5VNI7 24-860).
T2 construct: whole, on cells; also called cyno IL-12Rβ2
T2 sequence: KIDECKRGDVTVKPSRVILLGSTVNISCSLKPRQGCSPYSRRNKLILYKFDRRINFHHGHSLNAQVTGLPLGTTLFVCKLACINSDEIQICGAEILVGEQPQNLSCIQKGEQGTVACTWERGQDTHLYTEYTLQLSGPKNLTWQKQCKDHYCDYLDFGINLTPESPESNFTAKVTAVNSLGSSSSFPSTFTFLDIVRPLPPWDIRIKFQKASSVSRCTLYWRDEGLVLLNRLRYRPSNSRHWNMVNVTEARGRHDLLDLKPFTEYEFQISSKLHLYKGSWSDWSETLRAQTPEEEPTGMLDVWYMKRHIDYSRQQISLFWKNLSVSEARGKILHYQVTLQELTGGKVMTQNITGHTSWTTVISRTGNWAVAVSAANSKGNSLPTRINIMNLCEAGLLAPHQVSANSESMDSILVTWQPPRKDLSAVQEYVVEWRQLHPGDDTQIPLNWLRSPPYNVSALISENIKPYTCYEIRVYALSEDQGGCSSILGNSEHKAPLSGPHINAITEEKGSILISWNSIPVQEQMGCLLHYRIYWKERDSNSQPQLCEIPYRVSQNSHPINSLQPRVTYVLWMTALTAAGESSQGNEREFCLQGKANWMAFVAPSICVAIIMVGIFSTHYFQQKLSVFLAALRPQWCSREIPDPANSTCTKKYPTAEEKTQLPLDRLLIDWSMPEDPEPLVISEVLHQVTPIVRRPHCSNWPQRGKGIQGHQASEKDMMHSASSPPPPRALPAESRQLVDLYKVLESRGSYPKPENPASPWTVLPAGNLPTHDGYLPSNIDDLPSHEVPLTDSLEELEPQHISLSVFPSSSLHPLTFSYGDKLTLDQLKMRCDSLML
Kind of experiment: FACS, periplasmic extract, HEK-293T.

The target of experiment [3] is T3, human IL-12Rβ2-huFc-his (R&D system), biotinylated (human, UniProt Q99665 24-622, limits assumed, biotinylated).
T3 construct: bought; captured on Neutravidin in the ELISA; also called Bio-huIL-12Rβ2-huFc-His
T3 sequence (looked up): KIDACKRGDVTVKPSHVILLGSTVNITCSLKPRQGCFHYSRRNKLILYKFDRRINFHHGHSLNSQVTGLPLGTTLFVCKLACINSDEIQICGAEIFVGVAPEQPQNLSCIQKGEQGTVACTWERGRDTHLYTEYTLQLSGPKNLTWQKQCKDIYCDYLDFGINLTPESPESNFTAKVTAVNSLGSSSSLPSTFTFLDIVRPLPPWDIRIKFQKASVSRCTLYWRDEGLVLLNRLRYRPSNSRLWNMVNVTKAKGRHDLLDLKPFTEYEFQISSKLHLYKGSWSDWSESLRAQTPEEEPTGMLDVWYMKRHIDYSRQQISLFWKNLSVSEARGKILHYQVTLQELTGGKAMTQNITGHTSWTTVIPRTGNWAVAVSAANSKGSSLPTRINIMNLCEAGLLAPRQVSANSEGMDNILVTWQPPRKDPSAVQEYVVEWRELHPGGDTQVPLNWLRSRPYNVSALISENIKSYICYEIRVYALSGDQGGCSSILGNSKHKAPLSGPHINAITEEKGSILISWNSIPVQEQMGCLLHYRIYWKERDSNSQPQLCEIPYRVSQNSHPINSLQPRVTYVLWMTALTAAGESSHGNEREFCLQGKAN
As to the kind of experiment: ELISA, periplasmic extract.

In experiment [4] the target is T4, IL-12 receptor endogenously expressed on THP-1 cells (UniProt P42701 24-662; Q99665 24-862).
T4 construct: whole, on cells
Kind of experiment: FACS, hybridoma supernatant, THP-1.

For experiment [5], the target named is T5, human IL-12RB1 overexpressed on 293T cells (Example 2) (human, UniProt P42701 24-662).
T5 construct: whole, on cells
Kind of experiment: FACS, hybridoma supernatant, 293T.

The target of experiment [6] is T6, cyno IL-12RB1 overexpressed on 293T cells (Example 2) (cyno, UniProt A0A2K5VWV1 24-662).
T6 construct: whole, on cells
Kind of experiment: FACS, hybridoma supernatant, 293T.

B1: VHH361B2 (VHH)
VHH: QVQLVESGGGLVQTGASLRLSCAASGRTFGRYEMAWFRQAPGKEREFVAHISSSGLTTTYADSVKGRFTISRGNALNTVYLQMNSLKPEDTAVYYCAANVDGSAWSTLGAGMDYWGKGTLVTISS
Turning to B1, the results for the FOB in experiment [1] and in experiment [2] were 2.16 fold and 4.01 fold, respectively. Moreover, in experiment [3], the OD450 nm was 1.35.

B2: 85801_01L02 (antibody, V domains shown)
VH: QVQLVHSGPEVKKPGASVKVSCKASGYTFTDYYMHWVRQAPGQGLEWMGWINPDSGGTNYAQKFQGRVTMTRDTSISTAYMELSRLRSDDTAVYHCAREGATSNFDYWGQGTLVTVSS
VL: DIQMTQSPSSLSASVGDRVTITCRASQGISNYLAWFQQKPGKAPTSLIYAASNLQGGVPSKFSGSGSGTDFTLTISSLQPEDFATYYCQQYRYYPFTFGPGTKVDIK
notes: also called 85801_01L02A
In turn, B2 returned a Fold over buffer in experiment [4] of 41 fold. In addition, the “Fold over parental 293T” value came out at 117 fold in experiment [5] and 32 fold in experiment [6].

B3: VHH13B2 (VHH)
VHH: QVQLVESGGGLVRPGGSLRLSCAASGFTFSSNGMHWFRQAPGKGLEWVSSIGSGGTSIYYADSVKGRFTISRDNAKNTLYLQMNSLKSDDTAVYYCSKEVTGATRGQGTQVTVSS
For B3, the FOB was 1.77 fold in experiment [1] and 2.65 fold in experiment [2]. In addition, the OD450 nm in experiment [3] came out at 1.71.

B4: 85801_01M07 (antibody, V domains shown)
VH: QVQLVQSGAEVKKPGASVKVSCKASEYTFTDDYMHWVRQAPGQGLVWMGWINPNSGGTNYAQKFQGRVTMTRDTSISTAYMELSRLRSDDTAVYYCARGGLNWGWDWFDPWGQGTLVTVSS
VL: EIVLTQSPGTLSLSPGERATLSCRASQNINNNYLAWYQRKPGQAPRLLIYGASSRATGIPDRFSGSGSGTDFTLTISRLEPEDFAMYYCQQYGSSLTFGGGTKVEIK
notes: also called 85801_01M07A
In experiment [4], B4 had a Fold over buffer of 7 fold. In addition, the “Fold over parental 293T” value was found to be 91 fold in experiment [5] and 28 fold in experiment [6].

B5: VHH278B2 (VHH)
VHH: QVQLVESGGGLVQAGGSLKLSCAASGGTFSSYAMGWFRQAPGKEREFVAVIMRSGDTTAYVDSVKGRFTVSRDNAKNTVYLQMNSLKPEDAAVYFCAAGRPVTRTYYHTYTYPHDYDYWGQGTQVTVSS
Regarding B5, the FOB in experiment [1] is 2.46 fold; in experiment [2] it was 3.97 fold. This molecule also displayed an OD450 nm in experiment [3] of 0.794.

B6: VHH289B2 (VHH)
VHH: QVQLVESGGGLVQAGGSLKLSCAASGGTFSSYAMGWFRQAPGKEREFVAAIMRSGGTTVYVNSVKGRFTVSRDNAKNTVYLQMNSLKPEDAAVYYCAAGRPVSRTSYYTYTYPHDYDYWGQGTQVSVSS
Take B6: the FOB in experiment [1] was 1.91 fold; in experiment [2], 2.88 fold. This molecule also came in with an OD450 nm in experiment [3] of 3.19.

B7: VHH67B2 (VHH)
VHH: QVQLVESGGGLVQPGGSLRLSCAASGFTFSNYAMSWIRQGPERGFEWVSRINSGGGTTSYADSVKGRFTISRDNAKNTLYLQMNSLKPEDTAVYYCAKHSHPDYSSNYYRPGQGTQVTVSS
Turning to B7, the FOB came out at 1.73 fold in experiment [1] and 2.32 fold in experiment [2]. The OD450 nm in experiment [3] is 0.581.

B8: 85801_01002 (antibody, V domains shown)
VH: QVQLVQSGAEVRKPGASVKVSCKASGYTFTDYYMHWVRQAPGQGLEWMGWINPDNGGANYAQRFLGRVTMTRDTSISTAYMELSRLRSDDTAVYYCAREGSGSPYAFDLWGLGTVVTVSS
VL: DIQLTQSPSFLSASVGDRVTITCRASQGISSYLAWYQQKPGKAPKLLIYAASTLQSGVPSRFSGSGSGTEFTLTISSLQPEDFATYCCQQLNRYPFTFGQGTKLEIK
notes: also called 85801_01O02A
Take B8: the Fold over buffer in experiment [4] is 38 fold. Besides, the figures for the “Fold over parental 293T” value in experiment [5] and in experiment [6] were 107 fold and 13 fold, respectively.

B9: VHH307B2 (VHH)
VHH: QVQLVESGGGLVQAGGSLRLSCAASGRTFSRYIMGWFRQATGKEREFVAAISWSGLSTHYADSVQGRFTISRDNAENTVYLQMNSLKPEDTAVYYCAADRHWETRLLPREYDYWGQGTQVTVSS
Take B9: the FOB in experiment [1] stood at 1.95 fold; in experiment [2], 3.16 fold. The OD450 nm in experiment [3] amounted to 0.626.

B10: 85801_01D14 (antibody, V domains shown)
VH: EVQLVESGGGLVKPGGSLRLSCAASGFTFSNAWMNWVRQAPGKGLEWVGRIKSKTDGGTTDYAAPVKGRFTVSRDDPKNTLYLQMNSLKTEDTAVYYCTTDPGWEFDYWGQGILVTVSS
VL: DIQMTQSPSSLSASVGDRVTITCQASQDISNFLNWYQQKPGKAPNLLIYDASDLETGVPSRFSGSGSGTDFTFTISSLQPEDIATYYCQQYDNLPLTFGGGTKVEIK
notes: also called 85801_01D14A
As to B10, the Fold over buffer in experiment [4] came to 24 fold. For the same molecule, the “Fold over parental 293T” value in experiment [5] was determined as 116 fold; in experiment [6] it was 52 fold.

B11: VHH64B2 (VHH)
VHH: QVQLVESGGGLVQPGGSLRLSCAASGFTFSSKAMHWFRQAPGKGLEWVSSINSGGAITYYKDSVKGRFTVSRDNAKNILYLEMNSLKPEDTALYYCATDTDGRTRGQGTQVTVSS
As for B11, the FOB in experiment [1] stood at 1.68 fold; in experiment [2] it was 2.69 fold. The same molecule came in with an OD450 nm in experiment [3] of 2.22.

B12: VHH322B2 (VHH)
VHH: QLQLVESGGGLVQAGGSLRLSCAASGRTFGIHGMGWFRQAPGKEREFAAAIRWSDGTTIHADSVKGRLTISRDNAKNTVYLQMNSLKPEDTAVYYCAATSNPQFGRNWYTVAAGVEYGYWGQGTQVTVSS
For B12, the values for the FOB in experiment [1] and in experiment [2] were 1.99 fold and 3.21 fold, respectively. Besides, the OD450 nm in experiment [3] worked out at 1.67.

B13: VHH19B2 (VHH)
VHH: QVQLVESGGGLVQPGGSLRLSCAASGFTFSNYAMSWVRQAPGKGLEWVSAINSDGTSTSYADSVKGQFTISRDNAKNTLYLQMNSLKPEDTAVYYCTKWEGDTDSDYKFKDYWGQGTQVTVSS
B13: the FOB in experiment [1] amounted to 1.63 fold; in experiment [2], 2.75 fold. For the same molecule, the OD450 nm in experiment [3] came to 1.3.

Source of the values: patent US20250019450A1 (DIAGONAL THERAPEUTICS, published 2025).
